Reference: patent US20080199443A1

Columns and labels:
[1] = system: Xenopus GDF5 with a T7 epitope tag (GDF5-T7)
[2] = molecular target: Xenopus GDF5 (wild type, full-length open reading frame expressed from injected mRNA) (Xenopus); assay: cell-based or functional assay

Xenopus Furin, sequence (P29119 whole entry): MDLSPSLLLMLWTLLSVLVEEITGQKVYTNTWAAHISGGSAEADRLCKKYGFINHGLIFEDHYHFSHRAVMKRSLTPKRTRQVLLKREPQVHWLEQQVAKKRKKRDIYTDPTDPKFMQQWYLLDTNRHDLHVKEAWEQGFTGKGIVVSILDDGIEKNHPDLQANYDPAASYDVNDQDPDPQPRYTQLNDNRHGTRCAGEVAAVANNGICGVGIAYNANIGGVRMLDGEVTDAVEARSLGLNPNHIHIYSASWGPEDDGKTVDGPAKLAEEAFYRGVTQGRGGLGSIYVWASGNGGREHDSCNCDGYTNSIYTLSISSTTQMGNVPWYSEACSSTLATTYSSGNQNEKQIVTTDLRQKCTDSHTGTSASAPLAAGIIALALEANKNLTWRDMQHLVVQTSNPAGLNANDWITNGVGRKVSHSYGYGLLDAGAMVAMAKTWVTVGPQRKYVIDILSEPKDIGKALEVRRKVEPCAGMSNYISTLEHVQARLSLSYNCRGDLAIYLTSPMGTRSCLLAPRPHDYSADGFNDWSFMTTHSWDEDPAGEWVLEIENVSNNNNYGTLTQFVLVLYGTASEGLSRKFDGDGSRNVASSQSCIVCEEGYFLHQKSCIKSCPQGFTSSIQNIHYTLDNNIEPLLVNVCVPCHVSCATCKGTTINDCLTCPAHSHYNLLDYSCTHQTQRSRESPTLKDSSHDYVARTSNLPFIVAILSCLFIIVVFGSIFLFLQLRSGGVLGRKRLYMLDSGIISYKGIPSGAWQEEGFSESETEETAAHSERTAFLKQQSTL

Substance | Average DAI (Dorso-Anterior Index), ventralization of Xenopus embryos after co-injection of mRNAs [2] | Average DAI, ventralization of Xenopus embryos; GDF5 mRNA co-injected with Furin and SPC6 mRNAs together [2] | proteolytic processing to the mature peptide; anti-T7 immunoblot of Xenopus oocyte supernatants [1]
Xenopus Furin |  |  | XGDF5 and Vg1 mature peptides could be detected only when mRNAs encoding both Furin and SPC6 were co-injected with the growth factor messages
Xenopus SPC4 (enzyme) | 4.8 DAI |  | 
Xenopus SPC6A |  |  | XGDF5 and Vg1 mature peptides could be detected only when mRNAs encoding both Furin and SPC6 were co-injected with the growth factor messages

More lines, main results first:

Average DAI (Dorso-Anterior Index), ventralization of Xenopus embryos after co-injection of mRNAs [2] | Average DAI, ventralization of Xenopus embryos; GDF5 mRNA co-injected with Furin and SPC6 mRNAs together [2] | Substance | proteolytic processing to the mature peptide; anti-T7 immunoblot of Xenopus oocyte supernatants [1]
4.8 DAI | 2.4 DAI | Xenopus Furin (enzyme) | 
4.9 DAI | 2.4 DAI | Xenopus SPC6A (enzyme) | 
